Assays:
[1] = molecular target: T1, full length human c-Met on cells (human, UniProt P08581 25-1390); experiment: flow cytometry, Fab titration on GTL-16 cells
T1 construct: whole, on cells; NCI-H441 for migration; A549 for autophosphorylation; also called human c-Met GTL-16; c-Met on NCI-H441 cells
Protocol: (§1) In order to further characterize the anti-c-Met antibodies, the affinity to full length human and cynomolgus c-Met is determined. GTL16, CHO cells overexpressing cynomolgus c-Met or rhesus 4 MBr-5 cells are washed, trypsinised, and suspended in PBS containing 3% FCS (3% FCS/PBS) at 4-C. 2-5×10⁵ cells/sample are resuspended in 140 μl of 3% FCS//PBS containing 5 μg/ml of purified anti-cMet Fabs or serial dilutions thereof. As a positive control 5 μg/ml of DO24 (mouse IgG2a), anti-human c-Met is used. The cells are incubated for 30-60 minutes at 4° C. before being pelleted by centrifugation for 2 min at 2000 rpm (716 g) at 4° C. and washed in 200 μl of in chilled 3% FCS/PBS. The cells are again pelleted by centrifugation and the PBS gently removed. Cells are resuspended in 100 μl of goat anti-human IgG (H+L) PE conjugated (Jackson Cat No. 109-116-088) diluted 1:200 in 3% FCS/0.02% NaN₃/PBS; For the positive control goat anti-mouse IgG (H+L)-PE conjugated (Jackson Cat No. 115-116-146) diluted 1:200 in 3% FCS/PBS is used. Samples are incubated in the dark for 30-60 min at 4° C. Following centrifugation and washing in 200 μl of 3% FCS/0.02%/NaN₃/PBS the cells are resuspended in 100 μl of 3% FCS/PBS and assayed using FACS-array or FACS-Calibur.

[2] = molecular target: T2, rhesus c-Met on 4MBr-5 cells (rhesus); experiment: flow cytometry, Fab titration on rhesus 4MBr-5 cells
T2 construct: whole, on cells
Protocol: as §1

recombinant human c-Met [3] = molecular target: T3, recombinant human c-Met (human, UniProt P08581 25-932, limits assumed); experiment: SPR (BIAcore), c-Met amine-coupled on CM5 chip, Fab 16-500 nM as analyte
T3 construct: Soluble recombinant protein: immobilised on the CM5 chip in Biacore, in solution in the equilibrium titration; The precursor is cleaved into disulfide-linked alpha and beta subunits; also called Hepatocyte Growth Factor Receptor
T3 sequence (P08581 25-932 limits assumed): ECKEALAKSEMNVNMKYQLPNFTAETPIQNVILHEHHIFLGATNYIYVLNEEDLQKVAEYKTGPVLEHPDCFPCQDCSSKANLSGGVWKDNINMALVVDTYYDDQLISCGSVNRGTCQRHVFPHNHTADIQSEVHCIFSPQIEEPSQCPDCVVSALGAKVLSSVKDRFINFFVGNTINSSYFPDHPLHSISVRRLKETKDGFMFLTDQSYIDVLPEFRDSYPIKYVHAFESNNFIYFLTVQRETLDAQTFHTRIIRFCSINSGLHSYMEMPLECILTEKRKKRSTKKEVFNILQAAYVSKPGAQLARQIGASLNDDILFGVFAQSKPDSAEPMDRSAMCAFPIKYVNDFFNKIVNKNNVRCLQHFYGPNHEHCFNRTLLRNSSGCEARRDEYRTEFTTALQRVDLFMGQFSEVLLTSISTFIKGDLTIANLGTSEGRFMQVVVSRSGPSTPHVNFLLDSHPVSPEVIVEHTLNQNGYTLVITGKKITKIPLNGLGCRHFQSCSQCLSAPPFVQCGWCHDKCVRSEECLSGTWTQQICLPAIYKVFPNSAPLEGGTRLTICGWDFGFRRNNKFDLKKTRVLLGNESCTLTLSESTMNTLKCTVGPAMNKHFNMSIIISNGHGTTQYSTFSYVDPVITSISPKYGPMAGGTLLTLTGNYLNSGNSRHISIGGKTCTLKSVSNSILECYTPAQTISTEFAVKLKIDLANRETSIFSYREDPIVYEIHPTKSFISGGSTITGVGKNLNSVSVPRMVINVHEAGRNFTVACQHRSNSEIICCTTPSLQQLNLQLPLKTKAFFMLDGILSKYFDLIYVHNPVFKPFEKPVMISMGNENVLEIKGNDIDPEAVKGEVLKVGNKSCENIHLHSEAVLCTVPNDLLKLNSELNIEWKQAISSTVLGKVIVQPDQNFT
Protocol: (§2) Using these clones, kinetic SPR analysis is performed on a CM5 chip (Biacore, Sweden) which had been coated with a density of ˜400 RU of either recombinant human c-Met, in 10 mM Na-acetate pH 4.5 using standard EDC-NHS amine coupling chemistry. […] PBS (136 mM NaCl, 2.7 mM KCl, 10 mM Na2HPO4 , 1.76 mM KH2PO4 pH 7.4) is used as the running buffer. The Fab preparations are applied in concentration series of 16-500 nM at a flow rate of 20 μl/min. Association phase is set to 60 s and dissociation phase to 120 s.

[4] = molecular target: T4, cynomolgus c-Met on CHO cells (cynomolgus, UniProt A0A2K5UM36 25-1381, The natural precursor is cleaved into disulfide-linked alpha and beta subunits. It is given here as one mature chain, following the entry's CHAIN feature.); experiment: flow cytometry, Fab titration on CHO cells overexpressing cynomolgus c-Met
T4 construct: also called cyno c-Met; CHO-cMet cyno
T4 sequence (A0A2K5UM36 entry or part of it limits assumed): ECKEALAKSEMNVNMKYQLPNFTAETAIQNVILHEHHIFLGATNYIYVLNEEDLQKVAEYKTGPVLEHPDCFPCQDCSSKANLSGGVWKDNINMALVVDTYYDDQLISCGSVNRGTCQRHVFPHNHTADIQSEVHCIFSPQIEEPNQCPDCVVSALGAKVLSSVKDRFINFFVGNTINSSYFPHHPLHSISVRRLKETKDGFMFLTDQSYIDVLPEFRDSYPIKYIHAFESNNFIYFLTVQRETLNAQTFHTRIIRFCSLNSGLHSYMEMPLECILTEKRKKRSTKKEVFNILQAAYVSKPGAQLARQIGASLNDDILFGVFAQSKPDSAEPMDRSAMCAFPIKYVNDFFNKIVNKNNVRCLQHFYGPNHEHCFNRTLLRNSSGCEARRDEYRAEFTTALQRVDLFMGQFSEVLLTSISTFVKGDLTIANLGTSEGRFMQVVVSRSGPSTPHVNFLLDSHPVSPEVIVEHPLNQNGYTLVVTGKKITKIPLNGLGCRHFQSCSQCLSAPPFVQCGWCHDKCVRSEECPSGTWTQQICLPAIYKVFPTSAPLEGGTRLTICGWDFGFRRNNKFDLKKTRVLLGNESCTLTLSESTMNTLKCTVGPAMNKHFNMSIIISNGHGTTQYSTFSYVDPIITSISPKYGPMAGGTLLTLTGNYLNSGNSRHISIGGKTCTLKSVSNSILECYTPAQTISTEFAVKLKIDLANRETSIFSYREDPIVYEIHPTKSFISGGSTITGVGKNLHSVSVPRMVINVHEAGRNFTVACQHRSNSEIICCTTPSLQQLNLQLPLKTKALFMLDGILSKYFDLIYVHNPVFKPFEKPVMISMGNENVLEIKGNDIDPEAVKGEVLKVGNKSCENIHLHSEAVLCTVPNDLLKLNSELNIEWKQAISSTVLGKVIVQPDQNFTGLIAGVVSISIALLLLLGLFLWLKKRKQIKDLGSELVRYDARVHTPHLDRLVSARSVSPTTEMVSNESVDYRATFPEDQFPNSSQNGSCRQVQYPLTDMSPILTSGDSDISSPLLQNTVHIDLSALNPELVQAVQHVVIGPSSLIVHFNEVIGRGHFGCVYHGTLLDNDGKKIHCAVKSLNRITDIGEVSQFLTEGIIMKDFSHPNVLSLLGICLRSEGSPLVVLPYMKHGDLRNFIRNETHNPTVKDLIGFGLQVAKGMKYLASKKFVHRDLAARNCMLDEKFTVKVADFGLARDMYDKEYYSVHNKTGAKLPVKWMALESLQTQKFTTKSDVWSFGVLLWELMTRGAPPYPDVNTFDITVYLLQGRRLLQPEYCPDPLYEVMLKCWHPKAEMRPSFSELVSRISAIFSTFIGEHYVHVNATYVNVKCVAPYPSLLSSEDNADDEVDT
Protocol: as §1

[5] = molecular target: T1, full length human c-Met on cells; experiment: flow cytometry, Fab on GTL-16 cells
Protocol: as §1

recombinant human c-Met [6] = molecular target: T3, recombinant human c-Met; experiment: SPR (BIAcore), Fab on immobilised human c-Met
Protocol: as §2

[7] = molecular target: T4, cynomolgus c-Met on CHO cells; experiment: flow cytometry, Fab on CHO-cyno c-Met cells
Protocol: as §1

[8] = molecular target: T4, cynomolgus c-Met on CHO cells; experiment: flow cytometry, Fab on CHO-cyno c-Met cells; remark: listed apart in the source
Protocol: as §1
(§3) Using the assay conditions described above, the affinities for the affinity-optimized anti-c-Met Fabs are determined in solution. Affinities are determined for antibodies with KDs below 4.6 pM to human c-Met. FACs based analysis of binding to cyno-c-Met expressed on CHO cells, as described above, is carried out.

recombinant human c-Met [9] = molecular target: T3, recombinant human c-Met; experiment: solution equilibrium titration (SET), ECL detection (BioVeris), Fab with human c-Met in solution
Protocol: Electrochemiluminescence (ECL) based affinity determination in solution and data evaluation are basically performed as described by Haenel et al., 2005. A constant amount of Fab is equilibrated with different concentrations (serial 3ⁿ dilutions) of human c-Met (4 nM starting concentration) in solution. Biotinylated human c-Met coupled to paramagnetic beads (M-280 Streptavidin, Dynal), and BV-Tag™ (BioVeris Europe, Witney, Oxfordshire, UK) labelled anti-human (Fab)′₂ (Dianova) is added and the mixture incubated for 30 min. Subsequently, the concentration of unbound Fab is quantified by ECL detection using the M-SERIES® 384 analyzer (BioVeris Europe).
as §3

T1 sequence (P08581 25-1390): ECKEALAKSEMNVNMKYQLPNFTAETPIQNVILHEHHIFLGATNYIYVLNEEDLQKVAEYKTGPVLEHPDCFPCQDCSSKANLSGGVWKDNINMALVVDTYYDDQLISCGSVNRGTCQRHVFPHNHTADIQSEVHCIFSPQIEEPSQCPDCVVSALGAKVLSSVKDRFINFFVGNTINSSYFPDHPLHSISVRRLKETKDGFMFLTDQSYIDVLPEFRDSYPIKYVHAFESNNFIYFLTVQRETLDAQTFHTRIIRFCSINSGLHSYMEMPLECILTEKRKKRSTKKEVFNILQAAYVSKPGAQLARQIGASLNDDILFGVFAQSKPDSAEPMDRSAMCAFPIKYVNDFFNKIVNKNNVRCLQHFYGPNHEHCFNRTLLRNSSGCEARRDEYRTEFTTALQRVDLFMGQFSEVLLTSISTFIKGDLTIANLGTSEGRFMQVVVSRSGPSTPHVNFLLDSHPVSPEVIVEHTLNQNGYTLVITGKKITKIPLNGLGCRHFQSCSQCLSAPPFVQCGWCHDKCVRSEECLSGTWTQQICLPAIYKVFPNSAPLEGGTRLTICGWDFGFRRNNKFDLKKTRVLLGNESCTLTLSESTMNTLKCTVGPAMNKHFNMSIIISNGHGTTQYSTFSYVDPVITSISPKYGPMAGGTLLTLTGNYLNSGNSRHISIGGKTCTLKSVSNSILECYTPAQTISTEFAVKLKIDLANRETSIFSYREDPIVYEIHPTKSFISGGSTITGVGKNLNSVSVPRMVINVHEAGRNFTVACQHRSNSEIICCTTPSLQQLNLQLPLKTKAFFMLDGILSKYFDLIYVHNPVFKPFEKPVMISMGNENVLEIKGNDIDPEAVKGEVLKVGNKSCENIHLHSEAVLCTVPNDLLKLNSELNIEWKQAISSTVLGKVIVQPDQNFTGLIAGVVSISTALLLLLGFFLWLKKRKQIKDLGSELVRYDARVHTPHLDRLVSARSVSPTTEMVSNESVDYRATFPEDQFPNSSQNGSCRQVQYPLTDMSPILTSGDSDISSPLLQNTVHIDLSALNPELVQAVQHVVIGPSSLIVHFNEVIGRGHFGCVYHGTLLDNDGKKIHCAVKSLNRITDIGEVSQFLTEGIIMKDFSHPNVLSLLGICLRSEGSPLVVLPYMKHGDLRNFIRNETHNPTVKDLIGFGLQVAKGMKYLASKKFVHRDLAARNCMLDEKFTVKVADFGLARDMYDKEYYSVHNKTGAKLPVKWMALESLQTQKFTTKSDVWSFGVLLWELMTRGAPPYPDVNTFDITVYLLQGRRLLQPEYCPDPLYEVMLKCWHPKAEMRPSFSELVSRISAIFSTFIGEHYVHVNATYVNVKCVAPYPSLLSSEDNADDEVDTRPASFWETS

Binder | Kd [1] [nM] | Kd [2] [nM] | Kd (recombinant human c-Met [3]) [nM] | Kd [4] [nM] | Kd [5] [nM] | Kd (recombinant human c-Met [6]) [nM] | Kd [7] [nM] | Kd [8] [nM] | Kd (recombinant human c-Met [9]) [nM]
04682 (parental anti-cMet Fab antibody) (Fab, V domains shown, carries two C-terminal tags (FLAG and 6xHis)) VH: QVQLVQSGAEVKKPGESLKISCKGSGYSFTNYGIAWVRQMPGKGLEWMGIIYPSDSYTNYSPSFQGQVTISADKSISTAYLQWSSLKASDTAMYYCARMSYDYQHQAPSMDSWGQGTLVTVSS VL: DIVLTQPPSVSGAPGQRVTISCSGSSSNIGSNYVIWYQQLPGTAPKLLIYDDTNRPSGVPDRFSGSKSGTSASLAITGLQSEDEADYYCSTYDNYQAGWVFGGGTKLTVLG | 1.2 | 0.3 | 11.2 | 0.3 |  |  |  |  | 
04536 (parental anti-cMet Fab antibody) (Fab, V domains shown, carries two C-terminal tags (FLAG and 6xHis)) VH: QVQLVQSGAEVKKPGASVKVSCKASGYTFTGYYMNWVRQAPGQGLEWMGIINPWTGNTNYAQKFQGRVTMTRDTSISTAYMELSSLRSEDTAVYYCARDPGFFYYTPSDLWGQGTLVTVSS VL: DIELTQPPSVSVAPGQTARISCSGDSIGNKYVHWYQQKPGQAPVLVIYADSDRPSGIPERFSGSNSGNTATLTISGTQAEDEADYYCQAYDSSMLRVFGGGTKLTVLG | 0.4 | 0.1 | 1.4 | 0.5 | 1.7 | 1.4 | 229 |  | 
04687 (parental anti-cMet Fab antibody) (Fab, V domains shown, carries two C-terminal tags (FLAG and 6xHis)) VH: QVQLVQSGAEVKKPGSSVKVSCKASGGTFSSYAISWVRQAPGQGLEWMGGIDPFGTANYAQKFQGRVTITADESTSTAYMELSSLRSEDTAVYYCARVYQDVWGQGTLVTVSS VL: DIVMTQSPDSLAVSLGERATINCRSSQSILYGINNNFLGWYQQKPGQPPKLLIYWASTRESGVPDRFSGSGSGTDFTLTISSLQAEDVAVYYCQQYYNHPHTFGQGTKVEIKR | 5.7 | 1.2 | 0.8 | 1.1 | 4 | 0.8 | 1.3 |  | 
05097 (affinity-improved anti-cMet Fab antibody) (Fab, V domains shown) VH: QVQLVQSGAEVKKPGSSVKVSCKASGGTFSSYAISWVRQAPGQGLEWMGGIDPFGTANYAQKFQGRVTITADESTSTAYMELSSLRSEDTAVYYCARVYQDVWGQGTLVTVSS VL: DIVMTQSPDSLAVSLGERATINCRSSQSILYGINNNFLGWYQQKPGQPPKLLIYWASTRESGVPDRFSGSGSGTDFTLTISSLQAEDVAVYYCQQYAFGWTFGQGTKVEIKR |  |  |  |  |  |  |  | 0.00068 | 0.0036
05185 (affinity-improved anti-cMet Fab antibody) (Fab, V domains shown) VH: QVQLVQSGAEVKKPGSSVKVSCKASGGTFSSYAISWVRQAPGQGLEWMGGIDPIMGTEYAQKFQGRVTITADESTSTAYMELSSLRSEDTAVYYCARVYQDVWGQGTLVTVSS VL: DIVMTQSPDSLAVSLGERATINCRSSQSILYGINNNFLGWYQQKPGQPPKLLIYWASTRESGVPDRFSGSGSGTDFTLTISSLQAEDVAVYYCQQYAYEPNTFGQGTKVEIKR |  |  |  |  |  |  |  | 0.00029 | 0.0046
05098 (affinity-improved anti-cMet Fab antibody) (Fab, V domains shown) VH: QVQLVQSGAEVKKPGSSVKVSCKASGGTFSSYAISWVRQAPGQGLEWMGGIDPFGTANYAQKFQGRVTITADESTSTAYMELSSLRSEDTAVYYCARVYQDVWGQGTLVTVSS VL: DIVMTQSPDSLAVSLGERATINCRSSQSILYGINNNFLGWYQQKPGQPPKLLIYWASTRESGVPDRFSGSGSGTDFTLTISSLQAEDVAVYYCLQYSDEPWTFGQGTKVEIKR |  |  |  |  |  |  |  | 0.0003 | 0.0021

Reference: US20090175860A1 (Novartis, published 2009)
